Results from patent US9150884B2, “Microbial conversion of glucose to styrene and its derivatives” (Arizona Board of Regents, a Body Corporate of the State of …, priority 2011, dated 2015).

How the values were obtained:
[1] = Whole cell PADC assay in recombinant E. coli BL21(DE3); type: cell-based; conditions: whole cells in pH7 PBS, 1 g/L p-coumaric acid, 12 h
Method: (§1) Seed cultures consisting of 5 ml of LB broth containing 100 mg/L ampicillin were prepared of E. coli BL21(DE3) strains that were individually transformed with each of pTpad1-fdc1, pTpad1Sc, pTfdc1Sc, pTpdcLp, and pTpadCBs. These cultures were grown for 12 hours at 30° C. while agitating at 250 rpm. 1 mL of each culture was then used to inoculate 3×250 mL cultures flasks containing 50 mL of LB supplemented with 100 mg/L ampicillin. The culture was then grown at 30° C. while agitating at 250 rpm until it reached an OD600 of 0.6, at which point the cultures were induced by the addition of IPTG to a final concentration of 0.2 mM. Cultures were then grown for an additional 6 h. Cells were then collected by centrifuging in 50 ml Falcon tubes for 5 min at 1400×g and washed once with pH7 PBS (phosphate buffered saline) buffer. The entire cell pellet was resuspended in 10 ml pH7 PBS buffer and the appropriate substrate (trans-cinnamic acid or p-coumaric acid) added at a final concentration of 1 g/L. Enzyme activity was monitored by taking 1 mL samples from the culture at both the time of initiation as well as after 12 h of culture. All samples were then analyzed by HPLC using the methods described herein.

[2] = Whole cell CADC assay in recombinant E. coli BL21(DE3); type: cell-based; conditions: whole cells in pH7 PBS, 1 g/L trans-cinnamic acid, 12 h
Method: as §1

B1: FDC1: ferulic acid decarboxylase encoded by FDC1 of S. cerevisiae, expressed in recombinant E. coli from pTfdc1Sc (protein, listed as Saccharomyces cerevisiae)
chain: MRKLNPALEFRDFIQVLKDEDDLIEITEEIDPNLEVGAIMRKAYESHLPAPLFKNLKGASKDLFSILGCPAGLRSKEKGDHGRIAHHLGLDPKTTIKEIIDYLLECKEKEPLPPITVPVSSAPCKTHILSEEKIHLQSLPTPYLHVSDGGKYLQTYGMWILQTPDKKWTNWSIARGMVVDDKHITGLVIKPQHIRQIADSWAAIGKANEIPFALCFGVPPAAILVSSMPIPEGVSESDYVGAILGESVPVVKCETNDLMVPATSEMVFEGTLSLTDTHLEGPFGEMHGYVFKSQGHPCPLYTVKAMSYRDNAILPVSNPGLCTDETHTLIGSLVATEAKELAIESGLPILDAFMPYEAQALWLILKVDLKGLQALKTTPEEFCKKVGDIYFRTKVGFIVHEIILVADDIDIFNFKEVIWAYVTRHTPVADQMAFDDVTSFPLAPFVSQSSRSKTMKGGKCVTNCIFRQQYERSFDYITCNFEKGYPKGLVDKVNENWKRYGYK
- activity on p-coumaric acid (to p-hydroxystyrene) [1]: activities on both p-coumaric and trans-cinnamic acid
- CADC activity (trans-cinnamic acid to styrene) [2]: activities on both p-coumaric and trans-cinnamic acid
